The test system of this series is Escherichia coli TOP10. As to the kind of experiment: shrunken log2 fold change of peptide-encoding DNA abundance (4.5 h post-induction vs induction); higher = less antimicrobial activity (less host growth inhibition). As to conditions: time post-induction: 4.5 h; library: site-saturation at positions 5, 18, 19, 20.
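Further: peptides expressed intracellularly from a pBAD plasmid library in pooled LB shake-flask culture, induced with 0.3% L-arabinose, DNA abundance read by NGS, three biological replicates, DESeq2 with apeglm shrinkage.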

With RRIRWRPPRLPRPRPRPQVKPRP, the “shrunken log2 fold change” value worked out at 0.0306.

RRIRARPPRLPRPRPRPKHLPRP: the “shrunken log2 fold change” value came to 0.417.

Take RRIRSRPPRLPRPRPRPICTPRP: the “shrunken log2 fold change” value stood at 0.166.

Regarding RRIRGRPPRLPRPRPRPEMDPRP, the “shrunken log2 fold change” value was found to be 0.982.

As for RRIRSRPPRLPRPRPRPHQAPRP, the “shrunken log2 fold change” value is -0.161.

As to RRIRERPPRLPRPRPRPFQLPRP, the “shrunken log2 fold change” value worked out at 0.053.

For RRIRERPPRLPRPRPRPRVIPRP, the “shrunken log2 fold change” value turned out to be 0.0506.

Consider RRIRDRPPRLPRPRPRPVRGPRP, for which the “shrunken log2 fold change” value turned out to be 1.

As to RRIRPRPPRLPRPRPRPEMKPRP, the “shrunken log2 fold change” value was -0.0423.

For RRIRWRPPRLPRPRPRPQMIPRP, the “shrunken log2 fold change” value is -0.0866.

In the case of RRIRIRPPRLPRPRPRPRLGPRP, the “shrunken log2 fold change” value stood at 0.0473.

RRIRTRPPRLPRPRPRPAHEPRP: the “shrunken log2 fold change” value was found to be 0.197.

Regarding RRIRHRPPRLPRPRPRPHNEPRP, the “shrunken log2 fold change” value is -0.458.

As for RRIRARPPRLPRPRPRPEDEPRP, the “shrunken log2 fold change” value worked out at 0.182.

Regarding RRIRHRPPRLPRPRPRPCVMPRP, the “shrunken log2 fold change” value was -0.239.

For RRIRERPPRLPRPRPRPGDNPRP, the “shrunken log2 fold change” value was -0.0779.

Take RRIRSRPPRLPRPRPRPNGQPRP: the “shrunken log2 fold change” value stood at 0.0535.

As for RRIRSRPPRLPRPRPRPPTTPRP, the “shrunken log2 fold change” value came out at 0.391.

For RRIRDRPPRLPRPRPRPSKKPRP, the “shrunken log2 fold change” value is -0.217.

Consider RRIRDRPPRLPRPRPRPHCWPRP, for which the “shrunken log2 fold change” value was found to be 0.15.

On to RRIRGRPPRLPRPRPRPGCGPRP, for which the “shrunken log2 fold change” value amounted to 1.31.

In the case of RRIRQRPPRLPRPRPRPNTPPRP, the “shrunken log2 fold change” value is -0.0687.

In the case of RRIRHRPPRLPRPRPRPRKAPRP, the “shrunken log2 fold change” value was -0.0445.

In the case of RRIRQRPPRLPRPRPRPCDQPRP, the “shrunken log2 fold change” value worked out at 0.0849.

RRIRVRPPRLPRPRPRPTNVPRP: the “shrunken log2 fold change” value was -0.374.

With RRIRSRPPRLPRPRPRPPDQPRP, the “shrunken log2 fold change” value was found to be 0.674.

As to RRIRQRPPRLPRPRPRPPCTPRP, the “shrunken log2 fold change” value was -0.0301.

RRIRQRPPRLPRPRPRPYSNPRP: the “shrunken log2 fold change” value was -0.0703.

In the case of RRIRNRPPRLPRPRPRPMMCPRP, the “shrunken log2 fold change” value was -0.0344.

In the case of RRIRMRPPRLPRPRPRPGRQPRP, the “shrunken log2 fold change” value is -0.00182.

RRIRPRPPRLPRPRPRPSFDPRP: the “shrunken log2 fold change” value is -0.248.

Consider RRIRNRPPRLPRPRPRPGVVPRP, for which the “shrunken log2 fold change” value amounted to 0.176.

In the case of RRIRARPPRLPRPRPRPFCDPRP, the “shrunken log2 fold change” value worked out at 0.0183.

For RRIRVRPPRLPRPRPRPCAFPRP, the “shrunken log2 fold change” value was -0.264.

Take RRIRDRPPRLPRPRPRPQRFPRP: the “shrunken log2 fold change” value was 0.095.

For RRIRTRPPRLPRPRPRPDQPPRP, the “shrunken log2 fold change” value was 0.00486.

Take RRIRRRPPRLPRPRPRPIRTPRP: the “shrunken log2 fold change” value is 0.4.

Turning to RRIRGRPPRLPRPRPRPYFLPRP, the “shrunken log2 fold change” value is -0.345.

As to RRIRKRPPRLPRPRPRPTHHPRP, the “shrunken log2 fold change” value came out at 0.897.

For RRIRFRPPRLPRPRPRPVRRPRP, the “shrunken log2 fold change” value worked out at 0.122.

For the sequence RRIRTRPPRLPRPRPRPQTKPRP, the “shrunken log2 fold change” value worked out at 0.0553.

Regarding RRIRKRPPRLPRPRPRPTSCPRP, the “shrunken log2 fold change” value is 0.174.

Turning to RRIRYRPPRLPRPRPRPVNDPRP, the “shrunken log2 fold change” value is -0.24.

Consider RRIRLRPPRLPRPRPRPWIGPRP, for which the “shrunken log2 fold change” value was -0.177.

Consider RRIRSRPPRLPRPRPRPQLIPRP, for which the “shrunken log2 fold change” value was -0.0943.

As to RRIRARPPRLPRPRPRPLLMPRP, the “shrunken log2 fold change” value came out at 0.384.

With RRIRIRPPRLPRPRPRPMAMPRP, the “shrunken log2 fold change” value was -0.024.

Turning to RRIRYRPPRLPRPRPRPAYWPRP, the “shrunken log2 fold change” value is -0.029.

Take RRIRARPPRLPRPRPRPKSTPRP: the “shrunken log2 fold change” value amounted to 0.28.

In the case of RRIRIRPPRLPRPRPRPMRQPRP, the “shrunken log2 fold change” value came out at 0.3.

For RRIRKRPPRLPRPRPRPWRVPRP, the “shrunken log2 fold change” value came to 0.122.

On to RRIRARPPRLPRPRPRPWCVPRP, for which the “shrunken log2 fold change” value came out at 0.201.

Turning to RRIRIRPPRLPRPRPRPMYDPRP, the “shrunken log2 fold change” value is -0.726.

Turning to RRIRYRPPRLPRPRPRPMCNPRP, the “shrunken log2 fold change” value was -1.82.

Consider RRIRQRPPRLPRPRPRPDNWPRP, for which the “shrunken log2 fold change” value was -0.117.

Consider RRIRCRPPRLPRPRPRPRYWPRP, for which the “shrunken log2 fold change” value is -0.0818.

Take RRIRPRPPRLPRPRPRPYFIPRP: the “shrunken log2 fold change” value is -0.656.

With RRIRNRPPRLPRPRPRPWHAPRP, the “shrunken log2 fold change” value is -0.0713.

Turning to RRIRVRPPRLPRPRPRPCKMPRP, the “shrunken log2 fold change” value was -0.159.

Regarding RRIRARPPRLPRPRPRPPPTPRP, the “shrunken log2 fold change” value turned out to be 1.13.

RRIRERPPRLPRPRPRPTYTPRP: the “shrunken log2 fold change” value was -0.756.

As to RRIRERPPRLPRPRPRPCDEPRP, the “shrunken log2 fold change” value turned out to be 0.011.

For RRIRVRPPRLPRPRPRPVKAPRP, the “shrunken log2 fold change” value came to 0.0603.

In the case of RRIRKRPPRLPRPRPRPTSWPRP, the “shrunken log2 fold change” value worked out at 0.6.

In the case of RRIRWRPPRLPRPRPRPWQSPRP, the “shrunken log2 fold change” value was determined as 0.0143.

Consider RRIRTRPPRLPRPRPRPSWNPRP, for which the “shrunken log2 fold change” value is -0.34.

In the case of RRIRHRPPRLPRPRPRPYKCPRP, the “shrunken log2 fold change” value is -0.0105.

In the case of RRIRGRPPRLPRPRPRPGMAPRP, the “shrunken log2 fold change” value stood at 0.877.

RRIRQRPPRLPRPRPRPSCDPRP: the “shrunken log2 fold change” value was 0.0694.

On to RRIRGRPPRLPRPRPRPKQIPRP, for which the “shrunken log2 fold change” value came to 0.335.

In the case of RRIRHRPPRLPRPRPRPTDLPRP, the “shrunken log2 fold change” value was -0.154.

As to RRIRSRPPRLPRPRPRPTNKPRP, the “shrunken log2 fold change” value is -0.328.

Take RRIRYRPPRLPRPRPRPKKFPRP: the “shrunken log2 fold change” value was -0.0477.

For RRIRGRPPRLPRPRPRPCLMPRP, the “shrunken log2 fold change” value was 0.0827.

Regarding RRIRGRPPRLPRPRPRPPNTPRP, the “shrunken log2 fold change” value came out at 0.516.

With RRIRCRPPRLPRPRPRPYRYPRP, the “shrunken log2 fold change” value is -0.262.

For the sequence RRIRKRPPRLPRPRPRPRYAPRP, the “shrunken log2 fold change” value was -0.129.

As to RRIRCRPPRLPRPRPRPTKYPRP, the “shrunken log2 fold change” value was -0.192.

As for RRIRQRPPRLPRPRPRPIPLPRP, the “shrunken log2 fold change” value was -0.182.

As to RRIRARPPRLPRPRPRPGFWPRP, the “shrunken log2 fold change” value came out at 0.682.

As for RRIRDRPPRLPRPRPRPGINPRP, the “shrunken log2 fold change” value is 0.0194.

In the case of RRIRCRPPRLPRPRPRPCWWPRP, the “shrunken log2 fold change” value came out at 0.904.

For the sequence RRIRIRPPRLPRPRPRPKGLPRP, the “shrunken log2 fold change” value is 0.121.

In the case of RRIRKRPPRLPRPRPRPSMCPRP, the “shrunken log2 fold change” value was -0.472.

For the sequence RRIRARPPRLPRPRPRPIAWPRP, the “shrunken log2 fold change” value was found to be 0.442.

With RRIRKRPPRLPRPRPRPKSDPRP, the “shrunken log2 fold change” value is -0.015.

Turning to RRIRMRPPRLPRPRPRPGFDPRP, the “shrunken log2 fold change” value came out at 0.908.

Regarding RRIRNRPPRLPRPRPRPYKPPRP, the “shrunken log2 fold change” value is -0.0731.

With RRIRQRPPRLPRPRPRPLPTPRP, the “shrunken log2 fold change” value worked out at 0.131.

RRIRCRPPRLPRPRPRPHDQPRP: the “shrunken log2 fold change” value was 0.0433.

Regarding RRIRNRPPRLPRPRPRPHRTPRP, the “shrunken log2 fold change” value is -0.827.

As for RRIRNRPPRLPRPRPRPGQCPRP, the “shrunken log2 fold change” value amounted to 0.0172.

For RRIRYRPPRLPRPRPRPMFFPRP, the “shrunken log2 fold change” value was -0.618.

Consider RRIRLRPPRLPRPRPRPVWDPRP, for which the “shrunken log2 fold change” value was -0.0661.

On to RRIRRRPPRLPRPRPRPRMEPRP, for which the “shrunken log2 fold change” value stood at 0.0167.

Regarding RRIRERPPRLPRPRPRPKQPPRP, the “shrunken log2 fold change” value was 0.236.

With RRIRVRPPRLPRPRPRPPIQPRP, the “shrunken log2 fold change” value is -0.245.

Turning to RRIRMRPPRLPRPRPRPFHPPRP, the “shrunken log2 fold change” value is -0.0444.

Consider RRIRCRPPRLPRPRPRPTPPPRP, for which the “shrunken log2 fold change” value worked out at 0.807.

For the sequence RRIRLRPPRLPRPRPRPKVAPRP, the “shrunken log2 fold change” value was -0.0483.

For the sequence RRIRWRPPRLPRPRPRPDCWPRP, the “shrunken log2 fold change” value is 0.967.

Take RRIRNRPPRLPRPRPRPHHKPRP: the “shrunken log2 fold change” value is -0.461.

Take RRIRRRPPRLPRPRPRPHWRPRP: the “shrunken log2 fold change” value came to 0.0155.

Regarding RRIRRRPPRLPRPRPRPISNPRP, the “shrunken log2 fold change” value was -0.269.

As for RRIRARPPRLPRPRPRPKPTPRP, the “shrunken log2 fold change” value came to 0.744.

In the case of RRIRHRPPRLPRPRPRPSRRPRP, the “shrunken log2 fold change” value is -0.105.

Turning to RRIRRRPPRLPRPRPRPTGFPRP, the “shrunken log2 fold change” value is 0.728.

With RRIRDRPPRLPRPRPRPCSWPRP, the “shrunken log2 fold change” value came to 0.654.

With RRIRARPPRLPRPRPRPKVLPRP, the “shrunken log2 fold change” value is 0.269.

Turning to RRIRPRPPRLPRPRPRPWGVPRP, the “shrunken log2 fold change” value was -0.128.

RRIRERPPRLPRPRPRPQKWPRP: the “shrunken log2 fold change” value was -0.473.

As to RRIRERPPRLPRPRPRPPIPPRP, the “shrunken log2 fold change” value was determined as 0.281.

For the sequence RRIRLRPPRLPRPRPRPREQPRP, the “shrunken log2 fold change” value was determined as 0.134.

On to RRIRRRPPRLPRPRPRPYPDPRP, for which the “shrunken log2 fold change” value is -0.0558.

Regarding RRIRARPPRLPRPRPRPIPFPRP, the “shrunken log2 fold change” value is 0.00602.

With RRIRHRPPRLPRPRPRPWARPRP, the “shrunken log2 fold change” value is -0.00568.

For the sequence RRIRDRPPRLPRPRPRPCSVPRP, the “shrunken log2 fold change” value was -0.0368.

For the sequence RRIRVRPPRLPRPRPRPEKQPRP, the “shrunken log2 fold change” value is 0.101.

Turning to RRIRMRPPRLPRPRPRPNDFPRP, the “shrunken log2 fold change” value was determined as 0.0282.

With RRIRGRPPRLPRPRPRPEDIPRP, the “shrunken log2 fold change” value worked out at 0.165.

In the case of RRIRVRPPRLPRPRPRPSLRPRP, the “shrunken log2 fold change” value came to 0.133.

With RRIRRRPPRLPRPRPRPGKYPRP, the “shrunken log2 fold change” value was -0.307.

For RRIRQRPPRLPRPRPRPEFMPRP, the “shrunken log2 fold change” value was -0.0743.

In the case of RRIRHRPPRLPRPRPRPACVPRP, the “shrunken log2 fold change” value came out at 0.0678.

Consider RRIRVRPPRLPRPRPRPGWTPRP, for which the “shrunken log2 fold change” value came to 0.202.

These data come from the supplement of paper PMC9112550, “Optimization of the antimicrobial peptide Bac7 by deep mutational scanning” (BMC Biology, 2022).
